The source of these data is patent publication US20240123029A1 (HUMANITAS MIRASOLE S P A, published 2024).

In this assay the target is T1, SARS-CoV-2 Nucleocapsid protein, His Tag (SARS-CoV-2, UniProt P0DTC9 1-419).
T1 construct: Bought
Description: ELISA, His-tagged viral protein captured on nickel plates (6.25-50 pmol/mL). (In general: ELISA stands for enzyme-linked immunosorbent assay.)

B1: Purified C-reactive protein (CRP) (other)
chain: QTDMSRKAFVFPKESDTSYVSLKAPLTKPLKAFTVCLHFYTELSSTRGYSIFSYATKRQDNEILIFWSKDIGYSFTVGGSEILFEVPEVTVAPVHICTSWESASGIVEFWVDGKPRVRKSLKKGYTVGAEASIILGQEQDSFGGNFEGSQSLVGDIGNVNMWDFVLSPDEINTIYLGGPFSPNVLNWRALKYEVQGEVFTKPQLWP
As for B1, the binding result is given as “no binding (tested: CRP 3 µg/mL (25 nM))”.
